Test results reported in the supplement of paper PMC10567573.

B1: TRIB1 (parent)
chain: SYVRSRKRLREEEAARLFKQIVSA
B2: CD207 (parent)
chain: MTVEKEAPDAHFTVDKQNISLWPR

Variants of: B1
Assay: protein stability index of a GFP-peptide fusion (GPS, HEK-293T) (PSI 1-6); higher = more stable
Details: c terminus: a fixed tail appended
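Note: lentivirally expressed fusions sorted by FACS into six bins by GFP to DsRed ratio, PSI derived from sequencing read proportions per bin multiplied by bin number.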

Variant | protein stability index
SYVRSRKRLREEEEARLFKQIVSA [A14E] | 2.85
SYVRSRKRLRKEEAARLFKQIVSA [E11K] | 2.25

Variants of: B2
Assay: as above
Details: c terminus: a fixed tail appended

Variant | protein stability index
MTVEKEAPDAHFTVDKQNISLGPR [W22G] | 4.35
MTVEKEAPDAHFTVDKQNISLYPR [W22Y] | 3.83
MTVEKEAPDAHFTVDKQNISLRPR [W22R] | 4.1
MTVEKEAPDAHFTVDKQNISLSPR [W22S] | 4.69
MTVEKEAPDAHFTVDKQNISLVPR [W22V] | 4.32
MTVEKEAPDAHFTVDKQNISLKPR [W22K] | 4.99
MTVEKEAPDAHFTVDKQNISLEPR [W22E] | 5.08
MTVEKEAPDAHFTVDKQNISLMPR [W22M] | 4.19
MTVEKEAPDAHFTVDKQNISLLPR [W22L] | 4.42
MTVEKEAPDAHFTVDKQNISLTPR [W22T] | 4.34
MTVEKEAPDAHFTVDKQNISLIPR [W22I] | 4.73
MTVEKEAPDAHFTVDKQNISLHPR [W22H] | 4.21
MTVEKEAPDAHFTVDKQNISLCPR [W22C] | 4.08
MTVEKEAPDAHFTVDKQNISLAPR [W22A] | 4.63
MTVEKEAPDAHFTVDKQNISLDPR [W22D] | 4.85
MTVEKEAPDAHFTVDKQNISLQPR [W22Q] | 4.29
MTVEKEAPDAHFTVDKQNISLPPR [W22P] | 4.64
MTVEKEAPDAHFTVDKQNISLNPR [W22N] | 4.4
MTVEKEAPDAHFTVDKQNISLFPR [W22F] | 3.91
MTVEKEAPDAHFTVDKQNISLWPP [R24P] | 3.28
MTVEKEAPDAHFTVDKQNISLWPM [R24M] | 2.24
MTVEKEAPDAHFTVDKQNISLWPK [R24K] | 3.87
MTVEKEAPDAHFTVDKQNISLWPF [R24F] | 3.42

Variant | protein stability index
MTVEKEAPDAHFTVDKQNISLWPE [R24E] | 4.83
MTVEKEAPDAHFTVDKQNISLWPS [R24S] | 3.57
MTVEKEAPDAHFTVDKQNISLWPA [R24A] | 3.98
MTVEKEAPDAHFTVDKQNISLWPN [R24N] | 4.12
MTVEKEAPDAHFTVDKQNISLWPW [R24W] | 2.78
MTVEKEAPDAHFTVDKQNISLWPY [R24Y] | 2.83
MTVEKEAPDAHFTVDKQNISLWPC [R24C] | 3.16
MTVEKEAPDAHFTVDKQNISLWPI [R24I] | 2.9
MTVEKEAPDAHFTVDKQNISLWPT [R24T] | 3.63
MTVEKEAPDAHFTVDKQNISLWPG [R24G] | 3.72
MTVEKEAPDAHFTVDKQNISLWPQ [R24Q] | 3.97
MTVEKEAPDAHFTVDKQNISLWPV [R24V] | 3.07
MTVEKEAPDAHFTVDKQNISLWPH [R24H] | 3.69
MTVEKEAPDAHFTVDKQNISLWPD [R24D] | 4.53
MTVEKEAPDAHFTVDKQNISLWPL [R24L] | 2.95
MTVEKEAPDAHFTVDKQNISLWFR [P23F] | 2.71
MTVEKEAPDAHFTVDKQNISLWIR [P23I] | 2.91
MTVEKEAPDAHFTVDKQNISLWWR [P23W] | 2.52
MTVEKEAPDAHFTVDKQNISLWLR [P23L] | 2.62
MTVEKEAPDAHFTVDKQNISLWAR [P23A] | 3.39
MTVEKEAPDAHFTVDKQNISLWSR [P23S] | 2.64
MTVEKEAPDAHFTVDKQNISLWGR [P23G] | 3
MTVEKEAPDAHFTVDKQNISLWQR [P23Q] | 3.14

Variant | protein stability index
MTVEKEAPDAHFTVDKQNISLWHR [P23H] | 2.9
MTVEKEAPDAHFTVDKQNISLWTR [P23T] | 2.93
MTVEKEAPDAHFTVDKQNISLWKR [P23K] | 3.69
MTVEKEAPDAHFTVDKQNISLWDR [P23D] | 4.51
MTVEKEAPDAHFTVDKQNISLWCR [P23C] | 2.69
MTVEKEAPDAHFTVDKQNISLWRR [P23R] | 3.43
MTVEKEAPDAHFTVDKQNISLWYR [P23Y] | 2.62
MTVEKEAPDAHFTVDKQNISLWER [P23E] | 3.84
MTVEKEAPDAHFTVDKQNISLWNR [P23N] | 3.82
MTVEKEAPDAHFTVDKQNISLWMR [P23M] | 2.84
MTVEKEAPDAHFTVDKQNYSLWPR [I19Y] | 3.41
MTVEKEAPDAHFTVDKQNIILWPR [S20I] | 2.66
MTVEKEAPDAHFTVDKQNINLWPR [S20N] | 3.07
MTVEKEAPDAHFTVDKQNIFLWPR [S20F] | 3.04
MTVEKEAPDAHFTVDKQNIRLWPR [S20R] | 3.3
MTVEKEAPDAHFTVDKQNIYLWPR [S20Y] | 2.69
MTVEKEAPDAHFTVDKQNIVLWPR [S20V] | 2.71
MTVEKEAPDAHFTVDKQNIWLWPR [S20W] | 2.96
MTVEKEAPDAHFTVDKQNIALWPR [S20A] | 3.3
MTVEKEAPDAHFTVDKQNICLWPR [S20C] | 3.39
MTVEKEAPDAHFTVDKQNIELWPR [S20E] | 3.33
MTVEKEAPDAHFTVDKQNIDLWPR [S20D] | 4.04
MTVEKEAPDAHFTVDKQNIPLWPR [S20P] | 3.3

Variant | protein stability index
MTVEKEAPDAHFTVDKQNIQLWPR [S20Q] | 3.1
MTVEKEAPDAHFTVDKQNIKLWPR [S20K] | 3.55
MTVEKEAPDAHFTVDKQNIGLWPR [S20G] | 3.29
MTVEKEAPDAHFTVDKQNIHLWPR [S20H] | 3.2
MTVEKEAPDAHFTVDKQNILLWPR [S20L] | 2.48
MTVEKEAPDAHFTVDKQNITLWPR [S20T] | 3.43
MTVEKEAPDAHFTVDKQNIMLWPR [S20M] | 2.81
MTVEKEAPDAHFTVDKQNISWWPR [L21W] | 3.12
MTVEKEAPDAHFTVDKQNISVWPR [L21V] | 3.09
MTVEKEAPDAHFTVDKQNISKWPR [L21K] | 3.72
MTVEKEAPDAHFTVDKQNISPWPR [L21P] | 4.11
MTVEKEAPDAHFTVDKQNISTWPR [L21T] | 3.01
MTVEKEAPDAHFTVDKQNISDWPR [L21D] | 4.22
MTVEKEAPDAHFTVDKQNISYWPR [L21Y] | 3.39
MTVEKEAPDAHFTVDKQNISCWPR [L21C] | 3.64
MTVEKEAPDAHFTVDKQNISIWPR [L21I] | 3.79
MTVEKEAPDAHFTVDKQNISNWPR [L21N] | 3.43
MTVEKEAPDAHFTVDKQNISRWPR [L21R] | 3.7
MTVEKEAPDAHFTVDKQNISHWPR [L21H] | 4.06
MTVEKEAPDAHFTVDKQNISQWPR [L21Q] | 3.85
MTVEKEAPDAHFTVDKQNISSWPR [L21S] | 3.53
MTVEKEAPDAHFTVDKQNISMWPR [L21M] | 3.81
MTVEKEAPDAHFTVDKQNISFWPR [L21F] | 3.25
